Laboratory results published in patent publication US20230192842A1 (published 2023).

Key:
[1] = target: human CLDN3 I39A mutant on RKO KO cells (human) (UniProt O15551); assay: flow cytometry, % 906-mAb-PE positive of live cells
[2] = target: human CLDN3 Q155A mutant on RKO KO cells (human) (UniProt O15551); assay: as above
[3] = target: human CLDN3 I45A mutant on RKO KO cells (human) (UniProt O15551); assay: as above
[4] = target: human CLDN3 S42A mutant on RKO KO cells (human) (UniProt O15551); assay: as above
[5] = target: human CLDN3 Q43A mutant on RKO KO cells (human) (UniProt O15551); assay: as above
[6] = target: human CLDN3 K156A mutant on RKO KO cells (human) (UniProt O15551); assay: as above
[7] = target: human CLDN3 P152A mutant on RKO KO cells (human) (UniProt O15551); assay: as above
[8] = target: human CLDN3 F34A mutant on RKO KO cells (human) (UniProt O15551); assay: as above
[9] = target: T1, human CLDN3 N38A mutant on RKO KO cells (human, UniProt O15551 1-220); assay: flow cytometry, 906-mAb-PE on RKO KO cells expressing the mutant
T1 construct: Single-point alanine mutant, monoclonal RKO KO line with GFP
T1 chain: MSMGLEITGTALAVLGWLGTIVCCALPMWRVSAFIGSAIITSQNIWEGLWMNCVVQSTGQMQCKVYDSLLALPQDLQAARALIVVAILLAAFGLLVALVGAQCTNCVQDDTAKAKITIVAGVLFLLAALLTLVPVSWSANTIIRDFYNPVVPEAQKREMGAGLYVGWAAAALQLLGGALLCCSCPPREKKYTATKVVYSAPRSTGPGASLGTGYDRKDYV
Procedure: (§1) Flow cytometry. RKO KO target cells were seeded for flow cytometry as described in previous sections. Wells were topped up with flow buffer (PBS+2% FBS+2 mM EDTA+0.05% sodium azide) and plates were centrifuged at 300×g for 5 minutes. Supernatant was flicked off, cells were resuspended in 150 uL flow buffer. Plate was centrifuged at 300×g for 5 minutes. Supernatant was flicked off and cells were resuspended in 50 uL IgG block at 1:100 for 10 minutes at RT. Following incubation, plate was washed twice as above. Cells were resuspended in 50 uL of diluted antibodies (all a 1 in 300 dilution) in flow buffer, or flow buffer alone (unstained control). Cells were incubated for 30 minutes at RT. After incubation, plates were washed twice with 150 uL flow buffer. […]
(§2) Data Analysis: Flow Cytometry. Flow cytometry data was analysed using FLOWJO and further analysed in Microsoft excel and RStudio. […] Statistics for % PE-positive cells (as % of live cells) and Median Fluorescence Intensity (MFI) were calculated in FLOWJO and exported to Microsoft Excel for further analysis. […] Briefly, MFI was log 10 transformed and a mixed model was used with a fixed effect for cell line and a random effect for Plate, whilst % Parent was analysed on a linear scale in a mixed model with a fixed effect for cell line and a random effect for plate.

[10] = target: T2, human CLDN3 E153A mutant on RKO KO cells (human, UniProt O15551 1-220); assay: as above
T2 construct: Single-point alanine mutant, monoclonal RKO KO line with GFP
T2 chain: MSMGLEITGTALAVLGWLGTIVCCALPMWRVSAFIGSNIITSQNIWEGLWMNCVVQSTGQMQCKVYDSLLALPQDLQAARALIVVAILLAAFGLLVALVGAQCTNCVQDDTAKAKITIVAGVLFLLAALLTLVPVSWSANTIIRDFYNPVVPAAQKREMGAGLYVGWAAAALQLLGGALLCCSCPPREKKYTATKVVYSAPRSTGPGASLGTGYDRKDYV
Procedure: as §1, §2

human CLDN3 S42A mutant on RKO KO cells (human), sequence (O15551 whole entry S42A): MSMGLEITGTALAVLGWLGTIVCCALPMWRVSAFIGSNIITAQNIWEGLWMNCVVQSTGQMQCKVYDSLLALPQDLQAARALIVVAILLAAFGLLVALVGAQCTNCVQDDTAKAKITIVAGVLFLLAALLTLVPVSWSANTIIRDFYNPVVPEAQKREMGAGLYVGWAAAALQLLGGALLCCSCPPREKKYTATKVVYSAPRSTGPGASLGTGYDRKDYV
human CLDN3 Q43A mutant on RKO KO cells (human), sequence (O15551 whole entry Q43A): as the sequence (O15551 whole entry S42A) above, with A42S, Q43A counted along it
human CLDN3 F34A mutant on RKO KO cells (human), sequence (O15551 whole entry F34A): as the sequence (O15551 whole entry S42A) above, with F34A, A42S counted along it
human CLDN3 I45A mutant on RKO KO cells (human), sequence (O15551 whole entry I45A): as the sequence (O15551 whole entry S42A) above, with A42S, I45A counted along it
human CLDN3 K156A mutant on RKO KO cells (human), sequence (O15551 whole entry K156A): as the sequence (O15551 whole entry S42A) above, with A42S, K156A counted along it
human CLDN3 P152A mutant on RKO KO cells (human), sequence (O15551 whole entry P152A): as the sequence (O15551 whole entry S42A) above, with A42S, P152A counted along it
human CLDN3 I39A mutant on RKO KO cells (human), sequence (O15551 whole entry I39A): as the sequence (O15551 whole entry S42A) above, with I39A, A42S counted along it
human CLDN3 Q155A mutant on RKO KO cells (human), sequence (O15551 whole entry Q155A): as the sequence (O15551 whole entry S42A) above, with A42S, Q155A counted along it

B1: 906-mAb (anti-CLDN3 906-mAb, monoclonal antibody version of the scFv of 906-009_LNGFR) (antibody, V domains shown)
VH: QVQLVQSGAEVKKPGSSVKVSCKASGYTFTNYWVHWVRQAPGQGLEWMGRIEPNSSGSQYNEKFKNRVTITADKSTSTAYMELSSLRSEDTAVYYCARGVMVPLDYWGQGTLVTVSS
VL: DIQMTQSPSSLSASVGDRVTITCKASQDINRYIAWYQQKPGKAPKLLIHYTSTLQPGVPSRFSGSGSGTDFTLTISSLQPEDFATYYCLQYETLYSFGQGTKLEIK
Work on B1 yielded a Change in % Parent (906-mAb-PE positive cells) vs CLDN3 WT [1] of 0.1%, a Change in % Parent (906-mAb-PE positive cells) vs CLDN3 WT [2] of 0.1% and a Change in % Parent (906-mAb-PE positive cells) vs CLDN3 WT [3] of 0.05%. It also gave a Change in % Parent (906-mAb-PE positive cells) vs CLDN3 WT [4] of 0.1%, a Change in % Parent (906-mAb-PE positive cells) vs CLDN3 WT [5] of 0.1% and a Change in % Parent (906-mAb-PE positive cells) vs CLDN3 WT [6] of 0.05%. The Change in % Parent (906-mAb-PE positive cells) vs CLDN3 WT [7] was 0.1%, the Change in % Parent (906-mAb-PE positive cells) vs CLDN3 WT [8] was -0.95% and the “fold change MFI vs CLDN3 WT” value [9] was 0.01 fold vs CLDN3 WT. The “fold change MFI vs CLDN3 WT” value [10] was 0.01 fold vs CLDN3 WT.
